Ends that are not written are not given here. * marks the point of attachment. Biotin = O=C1N[C@H]2[C@H](CS[C@H]2CCCCC(=O)*)N1
T1: GST-PDCD4 recombinant protein (human, UniProt Q53EL6 1-469)
T1 construct: PDCD4 (programmed cell death 4), human, amplified from cDNA of HEK293T cells and cloned into pGEX-6P-1; pGEX-6P-1 is known to add GST at the N-terminus; also called GST-tagged PDCD4; source: E. coli BL21 (DE3), purified (Glutathione Sepharose 4FF)
T1 sequence (looked up): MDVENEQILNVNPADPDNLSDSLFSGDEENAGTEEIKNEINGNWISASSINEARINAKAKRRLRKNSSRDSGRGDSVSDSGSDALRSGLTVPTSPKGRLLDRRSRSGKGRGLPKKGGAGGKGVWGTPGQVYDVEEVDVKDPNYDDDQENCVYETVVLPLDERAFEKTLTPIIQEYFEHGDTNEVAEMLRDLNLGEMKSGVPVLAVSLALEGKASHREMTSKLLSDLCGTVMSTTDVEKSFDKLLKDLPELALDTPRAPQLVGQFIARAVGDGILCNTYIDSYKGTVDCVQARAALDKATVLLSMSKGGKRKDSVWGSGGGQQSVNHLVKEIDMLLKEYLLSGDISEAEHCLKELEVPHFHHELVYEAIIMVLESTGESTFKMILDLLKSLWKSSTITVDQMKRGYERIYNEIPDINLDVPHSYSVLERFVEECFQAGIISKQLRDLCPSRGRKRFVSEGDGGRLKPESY

B1: Biotin-PDCD4-NoLS peptide (peptide)
peptide: Biotin-EARINAKAKRRLRKNSSRDSGRG
notes: PDCD4, human, nucleolar localization signal (NoLS); also called biotinylated PDCD4-NoLS peptides; biotin-tagged PDCD4-NoLS peptide; source: synthetic peptide, bought: GL Biochem; not shown: biotin, N-terminal, kept
B2: His-tagged NPM1 N-terminal domain (NPM1-NT, aa 1-117) (domain or fragment, human, UniProt P06748 1-117, looked up)
chain: MEDSMDMDMSPLRPQNYLFGCELKADKDYHFKVDNDENEHQLSLRTVSLGAGAKDELHIVEAEAMNYEGSPIKVTLATLKMSVQPTVSLGGFEITPPVVLRLKCGSGPVHISGQHLV
notes: source: E. coli BL21 (DE3), purified (Ni-NTA)

Legend:
[1] = target: B2; test: pull-down; biotinylated PDCD4-NoLS peptide immobilised on streptavidin beads, incubated with purified NPM1 fragment proteins; conditions: both partners purified
[2] = target: T1, GST-PDCD4 recombinant protein; test: pull-down; GST-PDCD4 immobilised on Glutathione Sepharose 4FF beads, incubated with purified His-tagged proteins; SDS-PAGE, Coomassie blue; conditions: both partners purified

Row | binding result [1] | binding result [2] | Binder
1 | binds | – | B1
2 | – | binds | B2

Source: PMC12604968, “Mutant NPM1 modulates PDCD4 ubiquitination degradation and facilitates leukemogenesis” (iScience, 2025)
